Data set [1] addresses T1, HIV-1 reverse transcriptase (Human immunodeficiency virus 1, UniProt P03366;P03366 P03366:600-1159,P03366:600-1039). Briefly: filter; first 49 nt of RT1. The following applies: tags: expressed in E. coli, purified per Davies et al. 1991.
The target of data set [2] is T1, HIV-1 reverse transcriptase. Description: filter; HRT buffer, 6 mM MgCl2, 37 C. The following applies: tags: expressed in E. coli, purified per Davies et al. 1991, label: 5'-32P. How it is done:
Nitrocellulose Filter Binding Assays. Oligonucleotides bound to proteins can be effectively separated from the unbound species by filtration through nitrocellulose membrane filters (Yarus, M. and Berg, P. (1970) Anal. Biochem. 35:450–465; Lowary, P. T. and Uhlenbeck, O. C. (1987) Nucleic Acids Res. 15:10483–10493; Tuerk, C. and Gold, L. (1990) Science 249:505–510). The affinity of the random ssDNA library for HIV-1 RT was determined using a protein excess nitrocellulose filter binding assay as described in Carey, J. et al. (1983) Biochemistry 22:2601–2609. Selections were performed with a saturating ssDNA concentration to promote competition among DNA ligands for a limited number of available target binding sites.
(§1) Binding Curves Confirm High Affinity of Individual Ligands. Affinity values of each of the eight chosen isolates for HIV-1 RT were measured using the filter binding assay described in Example 1 (FIGS. 7A–C). […] Differences in maximum percent bound likely reflect competing ligand structures with lower affinity. […] Indicated dissociation constants were determined as in Example 1.

The target is the same in data set [3]. Briefly: inhibition; Ki', RNA-dependent DNA polymerase activity, 10 nM RT, 40 nM substrate, 37 C. The following applies: tags: expressed in E. coli, purified per Davies et al. 1991; label: 5'-32P; internal loop (AA opposite CG) helix. From the text: Assay For Inhibition of RNA-Dependent DNA Polymerase Activity. A substrate for the RNA-dependent DNA polymerase activity of HIV-1 RT was assembled by annealing an 18 nucleotide, 5' end-labeled DNA primer to a 30 nucleotide RNA template with a complementary 3' end (see FIG. 10), and purifying the duplex on a 12% non-denaturing acrylamide gel. The primer sequence matched the 3' terminal 18 nucleotides of tRNA^{Lys,3}, responsible for priming minus-strand DNA synthesis of the HIV-1 genome, and the template sequence paralleled the HIV-1 genomic primer binding site and downstream 12 nucleotides. A dilution series of inhibitory ssDNA ligand (to give a final concentration of 0, 1, 3, 9, 27, or 81 nM) was denatured in HRT Buffer at 70° C. for 5 minutes and allowed to renature slowly at 20° C. The primer:template substrate was added to a final concentration of 40 nM, along with dNTP's at 400 μM. The 10 μl reaction was initiated with the addition of either HIV-1, AMV, or MMLV-RT (to give a final concentration of 10 nM), allowed to proceed for 5 minutes at 37° C., and terminated with one volume of formamide. Extension products were separated on an 8% denaturing acrylamide gel and quantitated with an Ambis radioanalytic imager. […]

Data set [4] has the same target. Description: inhibition; Ki', RNA-dependent DNA polymerase activity. Particulars: tags: expressed in E. coli, purified per Davies et al. 1991. An excerpt: Assay For Inhibition of RNA-Dependent DNA Polymerase Activity. A substrate for the RNA-dependent DNA polymerase activity of HIV-1 RT was assembled by annealing an 18 nucleotide, 5' end-labeled DNA primer to a 30 nucleotide RNA template with a complementary 3' end (see FIG. 10), and purifying the duplex on a 12% non-denaturing acrylamide gel. The primer sequence matched the 3' terminal 18 nucleotides of tRNA^{Lys,3}, responsible for priming minus-strand DNA synthesis of the HIV-1 genome, and the template sequence paralleled the HIV-1 genomic primer binding site and downstream 12 nucleotides. A dilution series of inhibitory ssDNA ligand (to give a final concentration of 0, 1, 3, 9, 27, or 81 nM) was denatured in HRT Buffer at 70° C. for 5 minutes and allowed to renature slowly at 20° C. The primer:template substrate was added to a final concentration of 40 nM, along with dNTP's at 400 μM. The 10 μl reaction was initiated with the addition of either HIV-1, AMV, or MMLV-RT (to give a final concentration of 10 nM), allowed to proceed for 5 minutes at 37° C., and terminated with one volume of formamide. Extension products were separated on an 8% denaturing acrylamide gel and quantitated with an Ambis radioanalytic imager.
The ability of each of the 8 isolates to inhibit the RNA-dependent DNA polymerase activity of HIV-1 RT was assayed by measuring the decrease in extension product formation from a primer::template substrate as a function of inhibitor concentration (FIGS. 10A–10E). The substrate for the inhibition assay was a DNA:RNA heteroduplex consisting of an 18 nucleotide end-labeled DNA primer (SEQ ID NO: 74) identical in sequence to the 3' end of tRNA^{Lys,3} annealed to a 30 nucleotide RNA template (SEQ ID NO: 75) whose sequence matches the genomic primer binding site and the first twelve transcribed nucleotides. Extension reactions were performed as described in Example 1 in the presence of 0, 81, 27, 9, 3, and 1 nM inhibitor as indicated in FIG. 10.

Data set [5] shares this target. Description: filter; competition against RT1 gave Kc 3 nM (Example 5, FIG. 14). The following applies: tags: expressed in E. coli, purified per Davies et al. 1991; pseudoknot. How it is done: 15:10483–10493; Tuerk, C. and Gold, L. (1990) Science 249:505–510). The affinity of the random ssDNA library for HIV-1 RT was determined using a protein excess nitrocellulose filter binding assay as described in Carey, J. et al. (1983) Biochemistry 22:2601–2609. Selections were performed with a saturating ssDNA concentration to promote competition among DNA ligands for a limited number of available target binding sites.
as §1

In data set [1], ATCCGCCTGAATAGCGATACTCAGAAGGATAAACTGTCCAGAACTTGGA (ssDNA) [RT1t49] displayed a Kd of 4 nM.

B1: RT1 (ssDNA)
DNA: ATCCGCCTGATTAGCGATACTCAGAAGGATAAACTGTCCAGAACTTGGAATATATCACTTGAGCAAAATCACCTGCAGGGG
With B1, the Kd in data set [2] (internal loop (AA opposite CG) helix) was roughly 1 nM. This molecule displayed an inhibition constant (Ki) in data set [3] of 0.3 nM.

B2: RT36 (ssDNA)
DNA: ATCCGCCTGATTAGCGATACTAAGCTCTTAGTTGATGCGCGGTCAAAATTTAAGCTACTTGAGCAAAATCACCTGCAGGGG
B2 registered a Ki in data set [4] (label: 5'-32P, internal loop variant (AA opposite A)) of 6.5 nM.

B3: RT10 (ssDNA)
DNA: ATCCGCCTGATTAGCGATACTTATTTGCCCTTGCAGGCCGCAGGAGTGCTAGCAGTACTTGAGCAAAATCACCTGCAGGGG
In data set [4] (label: 5'-32P, intramolecular primer:template junction), B3 came in with a Ki of 62 nM.

In data set [5], GGUCCGAAGUGCAACGGGAAAAUGCACU (ssRNA) [RNA pseudoknot (RNA pk)] yielded a dissociation constant Kd of 5 nM. In data set [4] (pseudoknot), this molecule showed a Ki of 4.7 nM.

B4: RT6 (ssDNA)
DNA: ATCCGCCTGATTAGCGATACTCAGGCGTTAGGGAAGGGCGTCGAAAGCAGGGTGGGACTTGAGCAAAATCACCTGCAGGGG
On to B4, for which, in data set [2], binding was put at a Kd of 5 nM. Besides, in data set [4] (label: 5'-32P), the Ki came to 30 nM.

B5: RT26 (ssDNA)
DNA: ATCCGCCTGATTAGCGATACTTACGTGAGCGTGCTGTCCCCTAAAGGTGATACGTCACTTGAGCAAAATCACCTGCAGGGG
B5: the Kd in data set [2] (intramolecular primer:template junction with internal loop (AA opposite CG)) is roughly 1 nM. For the same molecule, in data set [4] (label: 5'-32P, intramolecular primer:template junction with internal loop (AA opposite CG)), the affinity corresponds to a Ki of 2.7 nM.

B6: RT8 (ssDNA)
DNA: ATCCGCCTGATTAGCGATACTAGCCAGTCAAGTTAATGGGTGCCATGCAGAAGCAACTTGAGCAAAATCACCTGCAGGGG
Take B6: the Ki in data set [4] (label: 5'-32P, internal loop variant (CAA opposite TAG)) came to 13 nM.

B7: RT4 (ssDNA)
DNA: ATCCGCCTGATTAGCGATACTTTAGCAAAGTTGAAGCCGGACTAACAAGCTCTACGACTTGAGCAAAATCACCTGCAGGGG
As to B7, the Ki in data set [4] (label: 5'-32P, internal loop variant (AA opposite AG)) was found to be 4.1 nM.

The values above are taken from patent US5786462, “High affinity ssDNA ligands of HIV-1 reverse transcriptase” (NeXstar Pharmaceuticals, Inc.).
